Source: patent US20200000929A1

Target: NPY2 receptor on HEK293/hNPY2R cells (human) (UniProt P49146)
Assay: cell-based or functional assay

PYY(3-36) wild-type (peptide; modification not given), sequence (chain, as listed by the source): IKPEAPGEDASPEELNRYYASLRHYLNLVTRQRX
NPY2 receptor on HEK293/hNPY2R cells (human), sequence (P49146 whole entry): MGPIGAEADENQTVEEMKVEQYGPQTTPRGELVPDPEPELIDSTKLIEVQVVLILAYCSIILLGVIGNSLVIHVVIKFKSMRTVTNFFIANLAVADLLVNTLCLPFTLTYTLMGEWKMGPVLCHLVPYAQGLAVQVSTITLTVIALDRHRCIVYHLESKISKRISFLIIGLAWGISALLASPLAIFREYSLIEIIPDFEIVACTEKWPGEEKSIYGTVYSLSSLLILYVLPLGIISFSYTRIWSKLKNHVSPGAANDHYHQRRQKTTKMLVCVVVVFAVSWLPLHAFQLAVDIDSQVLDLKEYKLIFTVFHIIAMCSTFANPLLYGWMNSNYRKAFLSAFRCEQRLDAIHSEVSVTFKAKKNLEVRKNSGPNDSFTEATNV

Substance | EC50 [nM], day 1, cAMP assay (inhibition of Forskolin stimulated cAMP accumulation in HEK293/hNPY2R cells) | EC50 [nM], day2, cAMP assay (inhibition of Forskolin stimulated cAMP accumulation in HEK293/hNPY2R cells)
PYY(3-36) wild-type (peptide; modification not given) | 0.09 nM | 0.1 nM
moPYY, Y2receptor specific modified analog of PYY(3-36): Ac-Ile-Lys-Pqa-Arg-His-Tyr-Leu-Asn-Trp-Val-Thr-Arg-Gln-(NMe)-Arg-Tyr-NH2 (peptide) | 0.14 nM | 0.15 nM
